Data reported in article PMC2731897.

Molecular target: T1, Mycobacterium tuberculosis GroEL1 (Rv3417c) without (His)6 tag (Mycobacterium tuberculosis), P9WPE9
T1 chain: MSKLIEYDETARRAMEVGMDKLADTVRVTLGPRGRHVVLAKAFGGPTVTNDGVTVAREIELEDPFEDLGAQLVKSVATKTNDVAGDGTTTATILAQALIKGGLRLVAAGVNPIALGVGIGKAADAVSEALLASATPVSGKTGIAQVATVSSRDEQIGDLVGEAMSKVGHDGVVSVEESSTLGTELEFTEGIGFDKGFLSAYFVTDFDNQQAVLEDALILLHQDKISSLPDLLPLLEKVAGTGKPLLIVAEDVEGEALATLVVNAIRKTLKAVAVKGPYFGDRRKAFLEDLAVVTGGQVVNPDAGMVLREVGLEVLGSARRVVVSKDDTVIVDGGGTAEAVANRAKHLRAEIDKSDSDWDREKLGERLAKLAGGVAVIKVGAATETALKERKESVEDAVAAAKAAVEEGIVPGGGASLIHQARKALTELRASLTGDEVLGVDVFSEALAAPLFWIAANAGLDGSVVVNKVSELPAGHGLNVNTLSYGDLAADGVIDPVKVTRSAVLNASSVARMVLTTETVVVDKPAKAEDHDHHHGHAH
Assay: SEC
Settings: remark: other sources report otherwise

B1: Mycobacterium tuberculosis GroEL1 (Rv3417c) without (His)6 tag, P9WPE9 1-539 (natural protein)
chain: T1 chain
stoichiometry N: 2
